Residue numbers refer to the chain shown, from its start. In names and notes the source's numbering stands. Blank lines part the entries; values can stand above or below the binder they belong to.
Columns and labels:
human IL1RAP [1] = target: T1, human IL1RAP (human, UniProt Q9NPH3 21-367, limits assumed, biotinylated in the ELISA screens (site not stated)); test: ELISA of point mutant IgG (heavy chain mutant with the parental chimeric light chain, CHO-E expression), one bar each, concentration not given
T1 construct: also called huIL1RAP; IL1RAP antigen
T1 sequence (looked up): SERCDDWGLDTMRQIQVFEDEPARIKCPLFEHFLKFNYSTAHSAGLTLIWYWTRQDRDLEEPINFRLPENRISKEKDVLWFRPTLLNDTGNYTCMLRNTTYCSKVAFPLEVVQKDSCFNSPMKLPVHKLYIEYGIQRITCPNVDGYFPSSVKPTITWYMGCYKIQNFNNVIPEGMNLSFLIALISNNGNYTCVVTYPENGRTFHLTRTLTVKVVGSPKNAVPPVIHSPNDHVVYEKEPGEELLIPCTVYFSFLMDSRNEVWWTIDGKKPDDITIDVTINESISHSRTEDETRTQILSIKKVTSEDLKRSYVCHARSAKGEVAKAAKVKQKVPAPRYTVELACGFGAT
Excerpt: (§1) For light chain 13 variants (T25A, E27Q, N28S, N30S, Y50A, K52S, T53Y, A55Q, E56S, H90Q, H91S, G93S and S95P) and 19 heavy chain variants (Y27G, I28T, L30S, T31S, W33Y, M34I, N35S, Q50R, F521, A541, S55L, D56G, S57I, T58A, N61A, E62Q, M63K, K65Q and D66G) were generated separately in the vector pTT5 (See FIG. 3A/B). The light chain mutants were paired with the parental chimeric heavy chain and heavy chain mutants were paired with parental chimeric light chain for expression analysis in CHO-E cells for 7 days. The resulting variants were evaluated for binding in ELISA experiments and compared to the parental chimeric IgG which has mouse variable region but human constant regions. For light chain variants, six point mutants VK-T25A, E27Q, N28S, N30S, K52S and T53Y depicted binding similar to chimeric IgG (+10% control; FIG. 3A) while for heavy chain […] point mutants VH-I28T, L30S, M34I, N35S, D56G, T58A, N61A, E62Q, M63K, K65Q and D66G depicted similar binding as chimeric IgG (+10% control; FIG. 3B).

human IL1RAP [2] = target: T1, human IL1RAP; test: ELISA of point mutant IgG (light chain mutant with the parental chimeric heavy chain, CHO-E expression), one bar each, concentration not given
Excerpt: as §1

[3] = target: human IL1RAP on cells (human) (UniProt Q9NPH3); test: cell-based or functional assay

- binding result (human IL1RAP [1]): binds
B1: GO11 chimeric IgG, heavy chain point mutant VH-D56G (antibody, V domains shown)
VH: QVHLQQSGPELVRPGTSVKISCEASGYIFLTYWMNWVKQRPGQGLEWIGQIFPASGSTYYNEMFKDKARFTVDKSSSTAYMQFSSLTSEDTAVYFCARSGPYSYYAGGYALDYWGQGTSVTVSS
VL: DIQMTQSPASLSASVGETVTITCRTSENINSYLAWYQQKQGKSPQLLVHYAKTLAEGVPSRFSGSGSGTQFSLKINSLKPEDFGSYYCQHHYGTSLTFGAGTKLELK
notes: Heavy chain mutant paired with the parental chimeric light chain; IgG backbone, expressed in CHO-E

- binding result (human IL1RAP [2]): binds
B2: VK-Y50A (antibody, V domains shown)
VH: B1 VH with G56D
VL: DIQMTQSPASLSASVGETVTITCRTSENINSYLAWYQQKQGKSPQLLVHAAKTLAEGVPSRFSGSGSGTQFSLKINSLKPEDFGSYYCQHHYGTSLTFGAGTKLELKR
notes: germlining point mutant, paired with the parental chimeric heavy chain; also called GO11 chimeric IgG, light chain point mutant Y50A; copies: 2 + 2

- binding result (human IL1RAP [1]): binds
B3: VH-Y27G (antibody, V domains shown)
VH: B1 VH with Y27G, G56D
VL: B2 VL with A50Y
notes: germlining point mutant, paired with the parental chimeric light chain; also called GO11 chimeric IgG, heavy chain point mutant Y27G; copies: 2 + 2

- binding result (human IL1RAP [2]): binds
B4: VK-G93S (antibody, V domains shown)
VH: B1 VH with G56D
VL: B2 VL with A50Y, G93S
notes: germlining point mutant, paired with the parental chimeric heavy chain; also called GO11 chimeric IgG, light chain point mutant G93S; copies: 2 + 2

- binding result (human IL1RAP [2]): binds
B5: GO11 chimeric IgG, light chain point mutant VK-E27Q (antibody, V domains shown)
VH: B1 VH with G56D
VL: B1 VL with E27Q
notes: Light chain mutant paired with the parental chimeric heavy chain; IgG backbone, expressed in CHO-E

- binding result (human IL1RAP [1]): binds
B6: GO11 chimeric IgG, heavy chain point mutant VH-M63K (antibody, V domains shown)
VH: B1 VH with G56D, M63K
VL: B1 VL
notes: as for B1

- binding result (human IL1RAP [1]): binds
B7: GO11 chimeric IgG, heavy chain point mutant VH-T58A (antibody, V domains shown)
VH: B1 VH with G56D, T58A
VL: B1 VL
notes: as for B1

- binding result (human IL1RAP [1]): binds
B8: GO11 chimeric IgG, heavy chain point mutant VH-N35S (antibody, V domains shown)
VH: B1 VH with N35S, G56D
VL: B1 VL
notes: as for B1

- binding result (human IL1RAP [1]): binds
B9: VH-Q50R (antibody, V domains shown)
VH: B1 VH with Q50R, G56D
VL: B2 VL with A50Y
notes: germlining point mutant, paired with the parental chimeric light chain; also called GO11 chimeric IgG, heavy chain point mutant Q50R; copies: 2 + 2

- binding result (human IL1RAP [2]): binds
B10: GO11 chimeric IgG, light chain point mutant VK-T25A (antibody, V domains shown)
VH: B1 VH with G56D
VL: B1 VL with T25A
notes: as for B5

- binding result (human IL1RAP [2]): binds
B11: GO11 chimeric IgG, light chain point mutant VK-N30S (antibody, V domains shown)
VH: B1 VH with G56D
VL: B1 VL with N30S
notes: as for B5

- binding result (human IL1RAP [1]): binds
B12: GO11 chimeric IgG, heavy chain point mutant VH-L30S (antibody, V domains shown)
VH: B1 VH with L30S, G56D
VL: B1 VL
notes: as for B1

- binding result (human IL1RAP [2]): binds
B13: VK-S95P (antibody, V domains shown)
VH: B1 VH with G56D
VL: B2 VL with A50Y, S95P
notes: germlining point mutant, paired with the parental chimeric heavy chain; also called GO11 chimeric IgG, light chain point mutant S95P; copies: 2 + 2

- binding result (human IL1RAP [2]): binds
B14: GO11 chimeric IgG, light chain point mutant VK-N28S (antibody, V domains shown)
VH: B1 VH with G56D
VL: B1 VL with N28S
notes: as for B5

- binding result (human IL1RAP [1]): binds
B15: GO11 chimeric IgG, heavy chain point mutant VH-E62Q (antibody, V domains shown)
VH: B1 VH with G56D, E62Q
VL: B1 VL
notes: as for B1

- binding result (human IL1RAP [1]): binds
B16: GO11 chimeric IgG, heavy chain point mutant VH-I28T (antibody, V domains shown)
VH: B1 VH with I28T, G56D
VL: B1 VL
notes: as for B1

- binding result (human IL1RAP [1]): binds
B17: GO11 chimeric IgG, heavy chain point mutant VH-M34I (antibody, V domains shown)
VH: B1 VH with M34I, G56D
VL: B1 VL
notes: as for B1

- binding result (human IL1RAP [1]): binds
B18: VH-W33Y (antibody, V domains shown)
VH: B1 VH with W33Y, G56D
VL: B2 VL with A50Y
notes: germlining point mutant, paired with the parental chimeric light chain; also called GO11 chimeric IgG, heavy chain point mutant W33Y; copies: 2 + 2

- binding result (human IL1RAP [2]): binds
B19: VK-E56S (antibody, V domains shown)
VH: B1 VH with G56D
VL: B2 VL with A50Y, E56S
notes: germlining point mutant, paired with the parental chimeric heavy chain; also called GO11 chimeric IgG, light chain point mutant E56S; copies: 2 + 2

- binding result (human IL1RAP [1]): binds
B20: GO11 chimeric IgG, heavy chain point mutant VH-N61A (antibody, V domains shown)
VH: B1 VH with G56D, N61A
VL: B1 VL
notes: as for B1

- binding result (human IL1RAP [1]): binds
B21: VH-S57I (antibody, V domains shown)
VH: B1 VH with G56D, S57I
VL: B2 VL with A50Y
notes: germlining point mutant, paired with the parental chimeric light chain; also called GO11 chimeric IgG, heavy chain point mutant S57I; copies: 2 + 2

- binding result (human IL1RAP [2]): binds
B22: GO11 chimeric IgG, light chain point mutant VK-K52S (antibody, V domains shown)
VH: B1 VH with G56D
VL: B1 VL with K52S
notes: as for B5

- binding result (human IL1RAP [2]): binds
B23: VK-H90Q (antibody, V domains shown)
VH: B1 VH with G56D
VL: B2 VL with A50Y, H90Q
notes: germlining point mutant, paired with the parental chimeric heavy chain; also called GO11 chimeric IgG, light chain point mutant H90Q; copies: 2 + 2

- binding result (human IL1RAP [1]): binds
B24: GO11 chimeric IgG, heavy chain point mutant VH-K65Q (antibody, V domains shown)
VH: B1 VH with G56D, K65Q
VL: B1 VL
notes: as for B1

- binding result (human IL1RAP [1]): binds
B25: VH-F52I (antibody, V domains shown)
VH: B1 VH with F52I, G56D
VL: B2 VL with A50Y
notes: germlining point mutant, paired with the parental chimeric light chain; also called GO11 chimeric IgG, heavy chain point mutant F52I; copies: 2 + 2

- binding result (human IL1RAP [2]): binds
B26: VK-A55Q (antibody, V domains shown)
VH: B1 VH with G56D
VL: B2 VL with A50Y, A55Q
notes: germlining point mutant, paired with the parental chimeric heavy chain; also called GO11 chimeric IgG, light chain point mutant A55Q; copies: 2 + 2

- binding result (human IL1RAP [2]): binds
B27: VK-H91S (antibody, V domains shown)
VH: B1 VH with G56D
VL: B2 VL with A50Y, H91S
notes: germlining point mutant, paired with the parental chimeric heavy chain; also called GO11 chimeric IgG, light chain point mutant H91S; copies: 2 + 2

- binding result (human IL1RAP [1]): no binding
B28: VH-S55L (antibody, V domains shown)
VH: B1 VH with S55L, G56D
VL: B2 VL with A50Y
notes: germlining point mutant, paired with the parental chimeric light chain; also called GO11 chimeric IgG, heavy chain point mutant S55L; copies: 2 + 2

- binding result (human IL1RAP [1]): binds
B29: GO11 chimeric IgG, heavy chain point mutant VH-D66G (antibody, V domains shown)
VH: B1 VH with G56D, D66G
VL: B1 VL
notes: as for B1

- IC90 IFN-gamma release (WB), IL-33 [3]: > 1000 nM
- IC90 IL-8 release (NCI-H292), IL1-B [3]: > 1000 nM
- IC90 IL-8 release (NCI-H292), IL-1A [3]: > 1000 nM
- IC90 IL-8 release (NCI-H292), IL-33 [3]: 46 nM
- IC90 IL-8 release (NCI-H292), IL-36G [3]: > 1000 nM
- IC90 MIP-1B release (WB), IL1-B [3]: 125 nM
- IC90 MIP-1B release (WB), IL-1A [3]: > 1000 nM
- IC90 MIP-1B release (WB), IL-36G [3]: 43 nM
- IC90 Nf-KB activation (HEK-Blue), IL1-B [3]: 56 nM
- IC90 Nf-KB activation (HEK-Blue), IL-1A [3]: > 1000 nM
- IC90 Nf-KB activation (HEK-Blue), IL-33 [3]: > 1000 nM
- IC90 Nf-KB activation (HEK-Blue), IL-36G [3]: > 1000 nM
B30: CAN04 (antibody, INN chains, looked up, V domains shown)
VH: QVQLVQSGAEVKKPGSSVKVSCKASGYAFTSSWMNWVRQAPGQGLEWMGRIYPGDGNTHYAQKFQGRVTLTADKSTSTAYMELSSLRSEDTAVYYCGEGYLDPMDYWGQGTLVTVSS
VL: DIQMTQSPSSLSASVGDRVTITCQASQGINNYLNWYQQKPGKAPKLLIHYTSGLHAGVPSRFSGSGSGTDYTLTISSLEPEDVATYYCQQYSILPWTFGGGTKVEIK
